Paper PMC8015430 (Immunity, 2021)

B1: COVA2-39 (antibody, V domains shown)
VH: QVQLVETGGGLIQPGGSLRLSCAASGFTVSSNYMSWVRQAPGKGLEWVSVIYTGGTTYYADSVKGRFTISRDNSKNTLYLQMNSLRAEDTAVYYCARAHVDTAMVESGAFDIWGQGTRVTVSS
VL: QSALTQPASVSGSPGQSITISCTGTSSDVGSYNLVSWYQQHPGKAPKLMIYEVTKRPSGVSNRFSGSKSGNTASLTISGLQAEDEADYYCCSYAGSSTWVFGGGTKLTVL
notes: IgG; RBD Class 2
B2: COVA1-16 (antibody, V domains shown)
VH: QVQLVQSGAEVKKPGASVKVSCKASGYTFTSYYMHWVRQAPGQGLEWMGIINSSGGSTSYAQKFQGRVTMTRDTSTSTVYMELSSLRSEDTAVYYCARPPRNYYDRSGYYQRAEYFQHWGQGTLVTVSS
VL: DIQLTQSPSSLSASVGDRVTITCQASQDISNYLNWYQQRPGKAPKLLIYDASNLETGVPSRFSGSGSGTDFTFTISSLQPEDIATYYCQQYDNPPLTFGGGTKLEIK
notes: IgG; RBD Class 4

Biological target: T1, Recombinant Stabilized SARS-CoV-2 Spike (SARS-CoV-2, Wuhan-Hu-1 reference (wave …, UniProt P0DTC2, stabilised))
T1 construct: also called Pre-fusion, stabilized and uncleaved SARS-CoV-2 Spike (pcDNA3.1+)
Assay: ELISA
Details: both partners purified

| Binder | binding result |
| --- | --- |
| B1 | binds |
| B2 | binds |
